To fix the notation:
B1: PRT-25 (protein)
chain: MANQEIRYSEVTPYHVTSVWTKGVTPPANFTQGEDVFHAPYVANQGWYDITKTFNGKDDLLCGAATAGNMLHWWFDQNKDQIERYLKEHPEKQKINFNGEQMFDVKEAIDTKDSQTDSKLFEYFKEKAFPYLSTKHLGVFPDHVIDMFINGYRLSLTNHGPTPVKEGSKDPRGGIFDAVFTRGDQSKLLTSRHDFKEKNLKEISDLIKQELTEGKALGLSHTYANVRINHVINLWGADFDSNGNLEAIYVTDSDSNASIGMKKYFVGVNSAGKVAISAKEIEEDNIGAQVLGLFTLSTGQDIWNQTN
B2: PRT-27 (protein)
chain: MANQEIRYSEVTPYHVTSVWTKGVTPPANFTQGEDVFHAPYVANQGWYDITKTFNGKDDLLCGAATAGNMLHWWFDQNKDQIKRYLEEHPEKQKINFNGEQMFDVKEAIDTKNHQTDSKLFEYFKEKAFPYLSTKHLGVFPDHVIDMFINGYRLSLTNHGPTPVKEGSKDPRGGIFDAVFTRGDQSKLLTSRHDFKEKNLKEISDLIKKELTEGKALGLSHTYANVRINHVINLWGADFDSNGNLEAIYVTDSDSNASIGMKKYFVGVNSAGKVAISAKEIKEDNIGAQVLGLFTLSTGQDSWNQTN
B3: PRT-26 (protein)
chain: MANQEIRYSEVTPYHVTSVWTKGVTPPANFTQGEDVFHAPYVANQGWYDITKTFNGKDDLLCGAATAGNMLHWWFDQNKDQIERYLKEHPEKQKINFNGEQMFDVKEAIDTKDSQTDSKLFEYFKEKAFPYLSTKHLGVFPDHVLDMFINGYRLSLTNHGPTPVKEGSKDPRGGIFDAVFTRGDQSKLLTSRHDFKEKTLKEISDLIKQELTEGKALGLSHTYANVRINHVINLWGADFDSEGNLKAIYVTDSDSNASIGMKKYFVGVNSAGKVAISAKEIKEDNIGAQVLGLFTLSTGQDIWNQTN
B4: PRT-28 (protein)
chain: MANQEIRYSEVTPYHVTSVWTKGVTPPANFTQGEDVFHAPYVANQGWYDITKTFNGKDDLLCGAATAGNMLHWWFDQNKDQIKRYLEEHPEKQKINFNGEQMFDVKEAIDTKDHQLDSKLFEYFKEKAFPYLSTKHLGVFPDHVLDMFINGYRLSLTNHGPTPVKEGSKDPRGGIFDAVFTRGDQSKLLTSRHDFKEKTLKEISDLIKKELTEGKALGLSHTYANVRINHVINLWGADFDSNGNLKAIYVTDSDSNASIGMKKYFVGVNSAGKVAISAKEIKEDNIGAQVLGLFTLSTGQDSWNQTN
B5: PRT-314 (protein)
chain: MQITSVWTKGVTPLTPEQFRENNEDVIHAPYLAHQGWYDITKAFDGKDNLLCGAATAGNMLHWWFDQNKTEIEAYLSKHPEKQKIIFGNQELFDLKAAIDTKDSQTNSQLFDYFRDKAFPNLSARQLGVMPDLVLDMFINGYYLNVGKTQSTDVNRPYQDKDKRGGIFDAVFTRGDQTTLLTARHDLKNKGLNDISTIIKQELTEGRALALSHTYANVSISHVINLWGADFNAEGELEAIYVTDSDANPSIGMKKYFVGRNAHGHVAISAKKIEGENIGAQVLGLFTLSSGKDQWQKLS
B6: PRT-290 (protein)
chain: MVTSVWTKGVTPPADFTQGEDVFHAPYVANQGWYDITKTFNGKDDLLCGAATAGNMLHWWFDQNKEYIEAYLKKHPEKQKIMFGDQELLDVRKAINTKGSQKNSELFNYFRDKAFPNLSARRLGVMPDLVLDMFINGYYLNVTKTQTTDVNRTYQEKDKRGGIFDAVFTRGDQSKLLTSRHDFKEKGLKEISDLIKQELTEGKALGLSHTYANVRIGHVINLWGADFDSDGNLKAIYVTDSDSNASIGMKKYFVGVNSSGKVAISAKEIKEDNIGAQVLGLFTLSTGQDIWNQTN
B7: PRT-306 (protein)
chain: MVTSVWTKGVTPPTDFIKGEDVFHAPYDAGQGWYDITKEFNGKDDLLCGAATAGNMLHWWFDQNKEYIEAYLKKHPEKQKIMFGDQELLDVRKAINTKGSQKNSELFNYFRDKAFPNLSARRLGVMPDLVLDMFINGYYLNVTKTQTTDVNRTYQEKDKRGGIFDAVFTRGDQSKLLTSRHDFKEKGLKEISDLIKQELTEGKALGLSHTYANVRIGHVINLWGADFDSDGNLKAIYVTDSDSNASIGMKKYGVGVNSAGKVAISAKEIKEDNIGAQVLGLFTLSTGQDIWNQTN
B8: PRT-298 (protein)
chain: MVTSVWTKGVTPPTDFIKGEDVFHAPYKAGQGWYDITKTFNGKDDLLCGAATAGNMLHWWFDQNKEYIEAYLKKHPEKQKIMFGDQELLDVRKAINTKGSQKNSELFNYFRDKAFPNLSARRLGVMPDLVLDMFINGYYLNVTKTQTTDVNRTYQEKDKRGGIFDAVFTRGDQSKLLTSRHDFKEKGLKEISDLIKQELTEGKALGLSHTYANVGINHVINLWGADFDSDGNLKAIYVTDSDSNASIGMKKYFVGVNSSGKVAISAKEIKEDNIGAQVLGLFTLSTGQDIWNQTN
B9: PRT-274 (protein)
chain: MVTSVWTKGVTPPTDFIYGEDVLHAPYKAGQGWYDITKTFNGKDNLLCGAATAGNMLHWWFDQNKEQIENYLKKHPEKQKIIFNNQELFDLKAAIDTKDSQLDSKLFDYFKEKAFPNLSTKHLGVFPDHVIDMFINGYRLSLLNHGPTPVKRGSKDKRGGIFDAVFTRGVQSKLLTNRHDLKNKTLKEISDLIKQELTEGKALGISHTYANVRINHVINLWGADFDAEGNLEAIYVTDSDTNPSIGMKKYFVGVNSSGKVAISAKEIEEDNIGAQVLGLFTLSTGQDIWNQTN
B10: PRT-282 (protein)
chain: MVTSVWTKGVTPPAKFTQGEDVFHAPYVANQGWYDITKTFNGKDDLLCGAATAGNMLHWWFDQNKEKIEAYLKKHPDKQKIMFGDQELLDVRKVINTKGDQTNSELFNYFRDKAFPNLSARRIGVMPDLVLDMFINGYYLNVYKTQTTDVNRTYQEKDRRGGIFDAVFTRGDQSKLLTSRHDFKEKNLKEISDLIKKELTEGKALGLSHTYANVRLNHVINLWGADFDSNGNLKAIYVTDSDSNASIGMKKYFVGVNSSGKVAISAKEIKEDNIGAQVLGLFTLSTGQDSWNQTN
B11: PRT-322 (protein)
chain: MTITSVWTKGVTPPTPEDFRENNEDVLHAPYVANQGWYDITKTFDGKDNLLCGAATAGNMLHWWFDQNKEEIERYLKKHPEKQKIIFNNQELFDVKAAIDTKDSQTNSKLFDYFRDKAFPNLSARQLGVMPDLVLDMFINGYYLNLGKTQSTDVNRPYQDKDKRGGIFDAVFTRGDQTTLLTARHDLKNKGLNEISDLIKQELTEGKALALSHTYANVRINHVINLWGADFDAEGNLIAIYVTDSDANASIGMKKYFVGRNANGKVAISAKKIEGDNIGAQVLGLFTLSTGQDQWQKLS
B12: PRT-330 (protein)
chain: MTITSVWTKGVTPPTPEDFRENNEDVLHAPYVANQGWYDITKTFDGKDNLLCGAATAGNMLHWWFDQNKEEIERYLKKHPEKQKIIFGNQELFDVKAAIDTKDSQTNSKLFDYFRDKAFPGLSARQLGVFPDLVLDMFINGYYLNLGKTQSTDVNRPYQDKDKRGGIFDAVFTRGVQTTLLTARHDLKNKGLNEISDLIKQELTEGKALALSHTYANVRINHVINLWGADFDAEGNLIAIYVTDSDANASIGMKKYFVGRNANGKVAISAKKIEGDNIGAQVLGLFTLSTGQDQWQKLS
B13: PRT-266 (protein)
chain: MVTSVWTKGVTPPTDFIYGEDVLHAPYKAGQGWYDITKTFNGKDDLLCGAATAGNMLHWWFDQNKEQIENYLKKHPEKQKINFNGEQMFDVKEAIDTKDSQLDSKLFEYFKEKAFPNLSTKHLGVFPDHVIDMFINGYRLSLLNHGPTPVKRGSKDPRGGIFDAVFTRGDQSKLLTNRHDLKNKTLKEISDLIKQELTEGKALGISHTYANVRINHVINLWGADFDAEGNLEAIYVTDSDSNASIGMKKYFVGVNSSGKVAISAKEIEEDNIGAQVLGLFTLSTGQDIWNQTN

The target of the series is pooled human IgG.
B1 yielded an Enzyme Activity Endpoint Assay: Fab′2 of 56 ng/µL, an Enzyme Activity Endpoint Assay: Fc of 123 ng/µL, an Enzyme Activity Endpoint Assay: IgG of 20 ng/µL and an Enzyme Activity Endpoint Assay: scIgG of 0 ng/µL.

With B2, the Enzyme Activity Endpoint Assay: Fab′2 amounted to 44 ng/µL, the Enzyme Activity Endpoint Assay: Fc turned out to be 112 ng/µL, the Enzyme Activity Endpoint Assay: IgG was determined as 14 ng/µL and the Enzyme Activity Endpoint Assay: scIgG came out at 13 ng/µL.

Turning to B3, the Enzyme Activity Endpoint Assay: Fab′2 is 40 ng/µL, the Enzyme Activity Endpoint Assay: Fc came out at 101 ng/µL, the Enzyme Activity Endpoint Assay: IgG stood at 11 ng/µL and the Enzyme Activity Endpoint Assay: scIgG came out at 14 ng/µL.

Protein B4 had an Enzyme Activity Endpoint Assay: Fab′2 of 16 ng/µL, an Enzyme Activity Endpoint Assay: Fc of 89 ng/µL, an Enzyme Activity Endpoint Assay: IgG of 14 ng/µL and an Enzyme Activity Endpoint Assay: scIgG of 44 ng/µL.

B5: the Enzyme Activity Endpoint Assay (purified): Fab'2 stood at 599 ng/µL, the Enzyme Activity Endpoint Assay (purified): Fc amounted to 286 ng/µL, the Enzyme Activity Endpoint Assay (purified): IgG came out at 101 ng/µL and the Enzyme Activity Endpoint Assay (purified): scIgG was 174 ng/µL.

With B6, the Enzyme Activity Endpoint Assay (purified): Fab'2 turned out to be 191 ng/µL, the Enzyme Activity Endpoint Assay (purified): Fc is 151 ng/µL, the Enzyme Activity Endpoint Assay (purified): IgG worked out at 179 ng/µL and the Enzyme Activity Endpoint Assay (purified): scIgG came to 0 ng/µL.

In turn, B7 registered an Enzyme Activity Endpoint Assay (purified): Fab'2 of 467 ng/µL, an Enzyme Activity Endpoint Assay (purified): Fc of 336 ng/µL, an Enzyme Activity Endpoint Assay (purified): IgG of 341 ng/µL and an Enzyme Activity Endpoint Assay (purified): scIgG of 0 ng/µL.

As to B8, the Enzyme Activity Endpoint Assay (purified): Fab'2 turned out to be 494 ng/µL, the Enzyme Activity Endpoint Assay (purified): Fc stood at 240 ng/µL, the Enzyme Activity Endpoint Assay (purified): IgG was determined as 147 ng/µL and the Enzyme Activity Endpoint Assay (purified): scIgG was found to be 35 ng/µL.

In turn, B9 yielded an Enzyme Activity Endpoint Assay (purified): Fab'2 of 1040 ng/µL, an Enzyme Activity Endpoint Assay (purified): Fc of 425 ng/µL, an Enzyme Activity Endpoint Assay (purified): IgG of 0 ng/µL and an Enzyme Activity Endpoint Assay (purified): scIgG of 0 ng/µL.

The protein B10 displayed an Enzyme Activity Endpoint Assay (purified): Fab'2 of 69 ng/µL, an Enzyme Activity Endpoint Assay (purified): Fc of 150 ng/µL, an Enzyme Activity Endpoint Assay (purified): IgG of 34 ng/µL and an Enzyme Activity Endpoint Assay (purified): scIgG of 413 ng/µL.

As to B11, the Enzyme Activity Endpoint Assay (purified): Fab'2 was determined as 506 ng/µL, the Enzyme Activity Endpoint Assay (purified): Fc came to 381 ng/µL, the Enzyme Activity Endpoint Assay (purified): IgG turned out to be 387 ng/µL and the Enzyme Activity Endpoint Assay (purified): scIgG is 0 ng/µL.

On to B12, for which the Enzyme Activity Endpoint Assay (purified): Fab'2 was determined as 493 ng/µL, the Enzyme Activity Endpoint Assay (purified): Fc turned out to be 369 ng/µL, the Enzyme Activity Endpoint Assay (purified): IgG was 352 ng/µL and the Enzyme Activity Endpoint Assay (purified): scIgG stood at 0 ng/µL.

The protein B13 gave an Enzyme Activity Endpoint Assay (purified): Fab'2 of 698 ng/µL, an Enzyme Activity Endpoint Assay (purified): Fc of 401 ng/µL, an Enzyme Activity Endpoint Assay (purified): IgG of 0 ng/µL and an Enzyme Activity Endpoint Assay (purified): scIgG of 0 ng/µL.

For the origin of these results see patent publication US20250027068.
